Experimental data: the domain aggregation screens of Martell et al. (2025)

Assay: soluble fraction after stress (log2 fold change); higher = more stays soluble; pooled small domains, quantitative proteomics
Conditions: stress: pH 4
Outline: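 Custom libraries of small protein domains were pooled and measured with high-throughput quantitative proteomics after pH 4 stress. The read-out is the fold change in the amount of each domain that stays soluble after the acid stress, taken as a measure of aggregation propensity. Fold changes are on a log2 scale, and higher values mean more of the domain stayed soluble.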

**Q.** With “HMGTYYTEIIAQLKKEIANGTWKLGERLPGELALAKQFNVSRSSIREALKALAYAGIVESKPGRGTFLLHV” as the sequence, how does the “soluble fraction (log2)” value read?
**A.** The value was -0.207.

**Q.** For “HMERLKYSQVVDLFKGEQVKSFVLDESNQLKMELQDGSTVSYKLRSFEQFYLDLSDTVKEQKESGIITDYD”, which “soluble fraction (log2)” value is on record?
**A.** Its value is -1.72.

**Q.** With “HMQSREISYSDFVASVERGEVATVILDGENIRFKGGDNVEYVTVRPADTNVTDLLIENQVVVRAEK” as the sequence, how does the “soluble fraction (log2)” value read?
**A.** The value was -0.824.

**Q.** Which “soluble fraction (log2)” value does the source give for “HMLSDFHLNHDSIVNHTVQKKETIFSLSKKYGLSINEIIKANPGIQIDKLKRRSILIIPLRKK” here?
**A.** The value was -0.12.

**Q.** With “HMESLGEKIKNIRISNNLKQSELADILHISEKTISSWENNRTTPDLNMIYKISNYFKKSFYYLISDDYI” as the sequence, how does the “soluble fraction (log2)” value read?
**A.** The value was -0.283.

**Q.** With “HMLGARSLNEAVARNLPQILAKYQLIHIAGKNGFNPELQGRGYVQYEYVDTELKDLMALADIVVSR” as the sequence, how does the “soluble fraction (log2)” value read?
**A.** The value was -0.0512.

**Q.** For “HMQGAARGMLFAQAQRWMTKFRIDPQQADRITQAALDPAQTDAILREVRRGYGPSAERALRGIIRRARRA”, which “soluble fraction (log2)” value is on record?
**A.** Its value is 0.259.

**Q.** For “HMEIPRYRLIGADGGRMVDLGEGQGAIPPVDVKRGMIDMPGLGKGYYTADGKSAVITNADGSKTRVL”, which “soluble fraction (log2)” value is on record?
**A.** Its value is 0.304.

**Q.** With “HMEFTKSPLDEIAGVGPARKRALLAAFGTAKAVSQAALADLEKTPGVNAATARLVYAHFHEK” as the sequence, how does the “soluble fraction (log2)” value read?
**A.** Its value is 0.22.

**Q.** With “HMQSTVSTHQKTLALDTAQSGIPVFPVSSTHKRPLTDHGYKDATADADAVRKIWQQFPSAFV” as the sequence, how does the “soluble fraction (log2)” value read?
**A.** The value was 0.22.

**Q.** Which “soluble fraction (log2)” value does the source give for “HMTTSNPMNVTSAEAAFDNGTDRLNAFISGRTTSEERSTYFPLFVRETKEDFLRAVGRFNEYIANHG” here?
**A.** The value was 0.0839.

**Q.** With “HMYVPEVPVPDLLGRSEEEAKNLIEDLGLVFKVSKREYSKEYDEGHVMEQSVDEGAKVKENYPVEVVISR” as the sequence, how does the “soluble fraction (log2)” value read?
**A.** Its value is -0.325.

**Q.** With “HMKKPKTVLSEEQKEFIINQAQDGVSAYDIARILFPSVNVTNLSKEVIDVAEFIRDTDIKLLADSE” as the sequence, how does the “soluble fraction (log2)” value read?
**A.** Its value is -0.132.

**Q.** With “HMEYPNEIARIFNQIPELNVSAVARTLGINKSLLSSYIYGMKKPSPERTEEIKSAIRKIGQNMLAV” as the sequence, how does the “soluble fraction (log2)” value read?
**A.** The value was 0.000369.

**Q.** With “HMEVTLGLGSMVRLLGEPYLGSTGRVVELPDQAERFASGLTAKVAVVERHDGELIRVPVTNLLLME” as the sequence, how does the “soluble fraction (log2)” value read?
**A.** The value was 0.214.

**Q.** Which “soluble fraction (log2)” value does the source give for “HMTNIELYQRLLNLGFTPAQAKILLVQYDETRLTDNLNYVDFKKQQGNIENLPAYTTTIIKKDVRL” here?
**A.** Its value is 0.0954.

**Q.** With “HMTELKKTAVDTWVKDLGTEQALAKLDTLAVVKLRRLAREYKAFGIAGRAISKADKGMLLAEFRAYYEN” as the sequence, how does the “soluble fraction (log2)” value read?
**A.** The value was 0.171.

**Q.** Which “soluble fraction (log2)” value does the source give for “HMAVDPSVLTRRERQALAWIARGLSNKEVARGLNLAESTVKVHVQSILRKLNLTSRVQAAVYAIEHGIDK” here?
**A.** Its value is -0.0198.

**Q.** Which “soluble fraction (log2)” value does the source give for “HMDSLELADEVGRVSEALQELRPHQREVLELSLVHGRSHQQISEKTGLALGTVKSHARRGLMRVREMLGV” here?
**A.** The value was -0.162.

**Q.** For “HMNTPHLTPREREVLKGIVDGLINKEIAARMGVSVATVITHRNNLTEKLGTRSVSALTIFAVMHGIVR”, which “soluble fraction (log2)” value is on record?
**A.** The value was -0.323.

**Q.** Which “soluble fraction (log2)” value does the source give for “HMKDEHYLYIKARVDNGDYPHLSELKSAEEIELVMPKLLQDGIVEFNKETGEYTIGEDVKAEIERL” here?
**A.** Its value is -1.02.

**Q.** Which “soluble fraction (log2)” value does the source give for “HMDDENKIEVMINEEKVQLTGKDKYVFVDIFNYIDMDLTRIHGNLVLKLNGENASHNSLLKSGDKIEARWE” here?
**A.** Its value is -1.92.

**Q.** With “HMLSVRQRMGELLERLADGQFHRFESLFTVEEGKLGVVVTFLGLLTLAKEQLLDIVQEGPTAPIYVKSLA” as the sequence, how does the “soluble fraction (log2)” value read?
**A.** Its value is 0.0784.

**Q.** Which “soluble fraction (log2)” value does the source give for “HMPVQPMDPSIEHISALTGKQFQAFPGQDHRAHMTAHLNFMSTNIVRNNPAVMGAIQKNILEHISLMAQEQ” here?
**A.** Its value is -0.0918.

**Q.** Which “soluble fraction (log2)” value does the source give for “HMGEVQALIPGLVSKLFVVEGESVKIGQKLIILEAMKMENEIASPINGTIKKIYIKSGDKIDKGSIIMEIT” here?
**A.** The value was -0.0106.

**Q.** For “HMQQISDPQVLRPMAEEVLHQSQKVVQDYKGGNKNAFHALVGQMMKKTQGKGNPQVIGQVLSELLDE”, which “soluble fraction (log2)” value is on record?
**A.** Its value is -0.284.

**Q.** Which “soluble fraction (log2)” value does the source give for “HMGRGAAKGPLKELGLDPVTGRPLVVKDGKFGMYVTDGETNAGLRRGDLVEQLTLDRGMELLAERRARADQ” here?
**A.** The value was -0.258.

**Q.** With “HMRPPLEWGTHGEITTRTVASGYVRASARVRLWDGELQRMTATASTASDARASLQHRIAERLRFSEL” as the sequence, how does the “soluble fraction (log2)” value read?
**A.** The value was -0.0592.

**Q.** With “HMSGLEDIKKKILEDAGIKKGSVKFVKVDKDYDDGIWKYEIDFVYDGKEYEYEIEVETGKILSRKTEKSD” as the sequence, how does the “soluble fraction (log2)” value read?
**A.** The value was 0.165.

**Q.** For “HMWTIDPLDWKTENADQIVEKVMSEAKENAIILLHDRYEASVEAALRIVDLLKEQGYTFVTADKLV”, which “soluble fraction (log2)” value is on record?
**A.** The value was -0.421.

**Q.** With “HMETKERDEQFLEMIRQNEGIIFKVASFYVDKEHPIGDLYQEVVLNLWKGYPSFRGESKYSTWIYRIALNT” as the sequence, how does the “soluble fraction (log2)” value read?
**A.** The value was -0.504.

**Q.** For “HMTGESIPFSKFLSEVDSGRVINVEIQGNNISGLLSDGNKFKTYSPNYPNLVEILSEKEVSIVATPLE”, which “soluble fraction (log2)” value is on record?
**A.** Its value is -0.166.

**Q.** For “HMVADEGELLAIAREVVAANPKVFEDWKAGKQSAAQWFVGQIMKRTRGRANPQLALKLVTQALEEHAR”, which “soluble fraction (log2)” value is on record?
**A.** Its value is -0.21.

**Q.** For “HMGGQKTREAIFDLIMTNSKITSAQIAEILGIHRSGVARHLKKLQEEGLIKREGPDNGGQWIVIK”, which “soluble fraction (log2)” value is on record?
**A.** The value was -0.298.

**Q.** Which “soluble fraction (log2)” value does the source give for “HMGTESFGARIRKIREARDWTPAALAEATGQTPEFVARVERDEVAPPVAFLLRLAAALGVDPSTF” here?
**A.** Its value is -0.672.

**Q.** With “HMALLSDEERIATVFAARLGGYSHQEIYKLLQDRFGPSLPAAYSEKSVLTDLQTALSQVPSL” as the sequence, how does the “soluble fraction (log2)” value read?
**A.** Its value is -1.41.

**Q.** With “HMSDPEAFIRQTVAAAEPEGIALSVLGKRVRGKFRTFKLRDLGYAQFRPYLGDLDGIKVEQRDGQSYARLD” as the sequence, how does the “soluble fraction (log2)” value read?
**A.** Its value is 0.045.
